Experimental data published in paper PMC2212392.
Read-outs that look alike come from different tables or passages of the source.

Assays:
Assay in all cases: SPR
[1] = target: soluble mCD2 comprising the extracellular region of mCD2 (mouse) (UniProt P08920)
[2] = target: soluble mCD2 comprising the extracellular region of mCD2 (mouse) (UniProt P08920); remark: listed apart in the source
[3] = target: soluble mCD2 comprising the extracellular region of mCD2 (mouse) (UniProt P08920); remark: listed apart in the source

Sequence of UniProt P08920 (P08920 23-203): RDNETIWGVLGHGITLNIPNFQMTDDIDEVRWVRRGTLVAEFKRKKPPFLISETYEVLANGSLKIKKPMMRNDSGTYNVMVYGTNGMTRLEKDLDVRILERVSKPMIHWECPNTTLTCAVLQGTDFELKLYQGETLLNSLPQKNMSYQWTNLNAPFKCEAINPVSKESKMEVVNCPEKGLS

**Q.** Which Kd [1] does the source give for “soluble mCD48 (purified monomeric mouse CD48 with a COOH-terminal His-tag) (from UniProt P18181 23-217) (domain or fragment)” here?
**A.** 49 µM

**Q.** And the koff [2]?
**A.** 22 s⁻¹

**Q.** And the Kd [3]?
**A.** 90 µM

**Q.** What about the koff [3] of the same substance?
**A.** > 20 s⁻¹
